{
  "source": "paper doi:10.1101/2025.03.12.642038",
  "about": "“Structural, biophysical and biological analysis and characterisation of IRF4 DNA-binding domain mutations associated with multiple myeloma”",
  "test_in_all_cases": "FP; FP: PBS + 0.05% Tween20, 5 nM DNA, 1 h, room temperature; SPR: Biacore S200, SA chip, protein 0.1-4500 nM, running buffer not given in material; errors are SD",
  "conditions_in_all_cases": "protein: recombinant; tags: N-terminal His8-linker-His8-TEV, cleaved; label: 3' fluorescein (FAM); hairpin, TTTT loop",
  "key": {"IRF4 DBD L70V": {"biological_target": "T1, IRF4 DBD L70V (Homo sapiens, UniProt Q15306 20-132, L70V)", "T1 sequence": "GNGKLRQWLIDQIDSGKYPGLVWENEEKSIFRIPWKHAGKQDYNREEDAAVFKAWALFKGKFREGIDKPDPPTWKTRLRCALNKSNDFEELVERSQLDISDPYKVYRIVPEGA"}, "IRF4 DBD C99A": {"biological_target": "T2, IRF4 DBD C99A (Homo sapiens, UniProt Q15306 20-132, C99A)", "T2 sequence": "T1 sequence with V51L, C80A"}, "IRF4 DBD S114R": {"biological_target": "T3, IRF4 DBD S114R (Homo sapiens, UniProt Q15306 20-132, S114R)", "T3 sequence": "T1 sequence with V51L, S95R"}, "IRF4 DBD K123R": {"biological_target": "T4, IRF4 DBD K123R (Homo sapiens, UniProt Q15306 20-132, K123R)", "T4 sequence": "T1 sequence with V51L, K104R"}, "IRF4 DBD D117H": {"biological_target": "T5, IRF4 DBD D117H (Homo sapiens, UniProt Q15306 20-132, D117H)", "T5 sequence": "T1 sequence with V51L, D98H"}},
  "note": "Where a chain is given by its changes, count along the chain named.",
  "data": [
    {"binder": "CTTGGTTTCACTTCCTGCGTTTTCGCAGGAAGTGAAACCAAG (structured_DNA)", "note": "[IRE hairpin (FAM)]", "values": [
      {"measurement": "Kd", "setting": "IRF4 DBD L70V", "result": "127 ± 27", "unit": "nM"},
      {"measurement": "Kd", "setting": "IRF4 DBD C99A", "result": "353 ± 169", "unit": "nM"},
      {"measurement": "Kd", "setting": "IRF4 DBD S114R", "result": "332 ± 162", "unit": "nM"},
      {"measurement": "Kd", "setting": "IRF4 DBD K123R", "result": "143 ± 34", "unit": "nM"},
      {"measurement": "Kd", "setting": "IRF4 DBD D117H", "result": "131 ± 28", "unit": "nM"}
    ]}
  ]
}
